In patent publication US20180155451A1 (published 2018):

T1: FcγRIIb extracellular domain with C-terminal His tag (human, UniProt P31994 43-217)
T1 construct: extracellular domain; also called FcgRIIb; 2b; not shown: His tag attached to the C terminus
T1 sequence (looked up): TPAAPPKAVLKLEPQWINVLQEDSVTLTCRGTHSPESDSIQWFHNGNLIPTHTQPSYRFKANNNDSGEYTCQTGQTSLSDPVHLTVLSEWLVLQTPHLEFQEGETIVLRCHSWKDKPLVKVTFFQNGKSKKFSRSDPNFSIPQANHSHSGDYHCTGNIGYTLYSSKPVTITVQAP


Tests used:
[1] = biological target: T2, FcγRIIIa extracellular domain with C-terminal His tag (human, UniProt P08637 17-208); experiment: SPR (Biacore), relative binding
T2 construct: extracellular domain; also called FcgRIIIa; 3a; not shown: His tag attached to the C terminus
Method: (§1) Analysis of interaction between objective antibody and the FcγR was carried out using Biacore T100 (GE Healthcare). HBS-EP+ (GE Healthcare) was used as the running buffer, and the measurement temperature was set to 25° C. Chips produced by immobilizing the antigen peptide by the amine coupling method to a Series S Sencor Chip CM5 (GE Healthcare), or alternatively, chips produced by allowing preliminarily biotinylated antigen peptides to interact with and immobilize onto a Series S Sensor Chip SA (certified) (GE Healthcare) were used. Antibodies of interest were captured onto an antigen peptide-immobilized chip, and allowed to interact to each FcγR diluted with running buffer. To regenerate and repeatedly use the chip, the antibodies captured on the chip were washed off by reacting 10 mM glycine-HCl, pH 1.5.
(§2) The FcγR-binding activity of each antibody was assessed primarily using as an indicator the FcγR-binding activity and dissociation constant for FcγR.

[2] = biological target: T1, FcγRIIb extracellular domain with …; experiment: SPR (Biacore), relative binding
Method: as §1, §2

[3] = biological target: T2, FcγRIIIa extracellular domain with …; experiment: SPR (Biacore); He/Con_3a divided by He/Con_2b (reference: binding to FcγRIIb)
Method: as §1, §2

T2 sequence (P08637 17-208): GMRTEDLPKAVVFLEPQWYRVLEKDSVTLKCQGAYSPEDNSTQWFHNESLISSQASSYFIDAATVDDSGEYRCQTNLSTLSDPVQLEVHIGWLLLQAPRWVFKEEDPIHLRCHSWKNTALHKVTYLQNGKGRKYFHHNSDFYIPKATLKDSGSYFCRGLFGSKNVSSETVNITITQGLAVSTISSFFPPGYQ

| Binder | He/Con_3a (IIIa binding) [1] | He/Con_2b (IIb binding) [2] | He_3a/2b (IIIa/IIb) [3] [ratio] |
| --- | --- | --- | --- |
| GpH7-A5/GpH7-B3 variant K326_19Q/GpL16-k0 (antibody, human IgG1, kappa, Heterodimerized IgG1; alteration in one H chain only; also called He Ab) heavy 1: not shown heavy 2: not shown light: DIVMTQSPLSLPVTPGEPASISCQASESLVHSNRNTYLHWYLQKPGQSPQLLIYKVSNRFSGVPDRFSGSGSGTDFTLKISRVEAEDVGVYYCSQNTHVPPTFGQGTKVEIERTVAAPSVFIFPPSDEQLKSGTASVVCLLNNFYPREAKVQWKVDNALQSGNSQESVTEQDSKDSTYSLSSTLTLSKADYEKHKVYACEVTHQGLSSPVTKSFNRGEC | 106 % of GpH7-A5/GpH7-B3/GpL16-k0 (=100) | 139 % of GpH7-A5/GpH7-B3/GpL16-k0 (=100) | 0.76 |
| GpH7-A5/GpH7-B3 variant L328_05P/GpL16-k0 (antibody, human IgG1, kappa, Heterodimerized IgG1; alteration in one H chain only; also called He Ab) heavy 1: not shown heavy 2: not shown light: DIVMTQSPLSLPVTPGEPASISCQASESLVHSNRNTYLHWYLQKPGQSPQLLIYKVSNRFSGVPDRFSGSGSGTDFTLKISRVEAEDVGVYYCSQNTHVPPTFGQGTKVEIERTVAAPSVFIFPPSDEQLKSGTASVVCLLNNFYPREAKVQWKVDNALQSGNSQESVTEQDSKDSTYSLSSTLTLSKADYEKHKVYACEVTHQGLSSPVTKSFNRGEC | 40.5 % of GpH7-A5/GpH7-B3/GpL16-k0 (=100) | 65.1 % of GpH7-A5/GpH7-B3/GpL16-k0 (=100) | 0.62 |
| GpH7-A5/GpH7-B3 variant L328_04F/GpL16-k0 (antibody, human IgG1, kappa, Heterodimerized IgG1; alteration in one H chain only; also called He Ab) heavy 1: not shown heavy 2: not shown light: DIVMTQSPLSLPVTPGEPASISCQASESLVHSNRNTYLHWYLQKPGQSPQLLIYKVSNRFSGVPDRFSGSGSGTDFTLKISRVEAEDVGVYYCSQNTHVPPTFGQGTKVEIERTVAAPSVFIFPPSDEQLKSGTASVVCLLNNFYPREAKVQWKVDNALQSGNSQESVTEQDSKDSTYSLSSTLTLSKADYEKHKVYACEVTHQGLSSPVTKSFNRGEC | 79.3 % of GpH7-A5/GpH7-B3/GpL16-k0 (=100) | 219 % of GpH7-A5/GpH7-B3/GpL16-k0 (=100) | 0.36 |
| GpH7-A5/GpH7-B3 variant N325_05P/GpL16-k0 (antibody, human IgG1, kappa, Heterodimerized IgG1; alteration in one H chain only; also called He Ab) heavy 1: not shown heavy 2: not shown light: DIVMTQSPLSLPVTPGEPASISCQASESLVHSNRNTYLHWYLQKPGQSPQLLIYKVSNRFSGVPDRFSGSGSGTDFTLKISRVEAEDVGVYYCSQNTHVPPTFGQGTKVEIERTVAAPSVFIFPPSDEQLKSGTASVVCLLNNFYPREAKVQWKVDNALQSGNSQESVTEQDSKDSTYSLSSTLTLSKADYEKHKVYACEVTHQGLSSPVTKSFNRGEC | 10.2 % of GpH7-A5/GpH7-B3/GpL16-k0 (=100) | 26 % of GpH7-A5/GpH7-B3/GpL16-k0 (=100) | 0.39 |
| GpH7-A5/GpH7-B3 variant N325_10E/GpL16-k0 (antibody, human IgG1, kappa, Heterodimerized IgG1; alteration in one H chain only; also called He Ab) heavy 1: not shown heavy 2: not shown light: DIVMTQSPLSLPVTPGEPASISCQASESLVHSNRNTYLHWYLQKPGQSPQLLIYKVSNRFSGVPDRFSGSGSGTDFTLKISRVEAEDVGVYYCSQNTHVPPTFGQGTKVEIERTVAAPSVFIFPPSDEQLKSGTASVVCLLNNFYPREAKVQWKVDNALQSGNSQESVTEQDSKDSTYSLSSTLTLSKADYEKHKVYACEVTHQGLSSPVTKSFNRGEC | 38.2 % of GpH7-A5/GpH7-B3/GpL16-k0 (=100) | 95.9 % of GpH7-A5/GpH7-B3/GpL16-k0 (=100) | 0.4 |
| GpH7-A5/GpH7-B3 variant N325_03V/GpL16-k0 (antibody, human IgG1, kappa, Heterodimerized IgG1; alteration in one H chain only; also called He Ab) heavy 1: not shown heavy 2: not shown light: DIVMTQSPLSLPVTPGEPASISCQASESLVHSNRNTYLHWYLQKPGQSPQLLIYKVSNRFSGVPDRFSGSGSGTDFTLKISRVEAEDVGVYYCSQNTHVPPTFGQGTKVEIERTVAAPSVFIFPPSDEQLKSGTASVVCLLNNFYPREAKVQWKVDNALQSGNSQESVTEQDSKDSTYSLSSTLTLSKADYEKHKVYACEVTHQGLSSPVTKSFNRGEC | 30.3 % of GpH7-A5/GpH7-B3/GpL16-k0 (=100) | 111 % of GpH7-A5/GpH7-B3/GpL16-k0 (=100) | 0.27 |
| GpH7-A5/GpH7-B3 variant K326_20W/GpL16-k0 (antibody, human IgG1, kappa, Heterodimerized IgG1; alteration in one H chain only; also called He Ab) heavy 1: not shown heavy 2: not shown light: DIVMTQSPLSLPVTPGEPASISCQASESLVHSNRNTYLHWYLQKPGQSPQLLIYKVSNRFSGVPDRFSGSGSGTDFTLKISRVEAEDVGVYYCSQNTHVPPTFGQGTKVEIERTVAAPSVFIFPPSDEQLKSGTASVVCLLNNFYPREAKVQWKVDNALQSGNSQESVTEQDSKDSTYSLSSTLTLSKADYEKHKVYACEVTHQGLSSPVTKSFNRGEC | 84.8 % of GpH7-A5/GpH7-B3/GpL16-k0 (=100) | 148 % of GpH7-A5/GpH7-B3/GpL16-k0 (=100) | 0.57 |
| GpH7-A5/GpH7-B3 variant L328_01G/GpL16-k0 (antibody, human IgG1, kappa, Heterodimerized IgG1; alteration in one H chain only; also called He Ab) heavy 1: not shown heavy 2: not shown light: DIVMTQSPLSLPVTPGEPASISCQASESLVHSNRNTYLHWYLQKPGQSPQLLIYKVSNRFSGVPDRFSGSGSGTDFTLKISRVEAEDVGVYYCSQNTHVPPTFGQGTKVEIERTVAAPSVFIFPPSDEQLKSGTASVVCLLNNFYPREAKVQWKVDNALQSGNSQESVTEQDSKDSTYSLSSTLTLSKADYEKHKVYACEVTHQGLSSPVTKSFNRGEC | 44.9 % of GpH7-A5/GpH7-B3/GpL16-k0 (=100) | 80.2 % of GpH7-A5/GpH7-B3/GpL16-k0 (=100) | 0.56 |
